According to US20170158755A1 (PROTHENA BIOSCIENCES, published 2017):

Legend:
[1] = target: T1, recombinant laminin 411 (human, UniProt P07942 22-1786; P11047 34-1609, limits assumed); test: hMCAM.CHO flow cytometric blocking assay; antibody pre-incubated with laminin 411; blocked partner: human MCAM on CHO cells
T1 construct: also called LAMA4 in complex with its gamma1 and beta1 chains
Description: The monoclonal antibodies against LAMA4 were tested for their ability to block the binding of LAMA4 to its ligand MCAM. IgG control antibody, 1C1, 5Al2, 5B5, 19C12, and 12D3 were pre-incubated with recombinant LAMA4 protein, LAMA4-positive healthy mouse brain tissue, or LAMA4-displaying human 293 cells. […] For the mouse brain tissue blocking assay, antibodies were used at concentrations of 2.5 ug/ml or 0.04 ug/ml.
Following two washes with FACS buffer (1% FBS in PBS), cells were resuspended with 650-conjugated anti-pan-laminin antibody (1:1000; Novus Biologicals) and incubated for 20 min at 4° C., and washed again. Cells were analyzed for pan-laminin reactivity by flow cytometry using standard procedures.

[2] = target: T2, mouse His-laminin-α4 (mouse, UniProt P97927 826-1816, limits assumed); test: ELISA hMCAM-Fc capture blocking assay; antibody pre-incubated with mouse LAMA4-His; blocked partner: captured hMCAM-Fc
T2 construct: Bought His-tagged recombinant protein; also called Murine LAMA4; recombinant mouse LAMA4-His
T2 sequence (looked up): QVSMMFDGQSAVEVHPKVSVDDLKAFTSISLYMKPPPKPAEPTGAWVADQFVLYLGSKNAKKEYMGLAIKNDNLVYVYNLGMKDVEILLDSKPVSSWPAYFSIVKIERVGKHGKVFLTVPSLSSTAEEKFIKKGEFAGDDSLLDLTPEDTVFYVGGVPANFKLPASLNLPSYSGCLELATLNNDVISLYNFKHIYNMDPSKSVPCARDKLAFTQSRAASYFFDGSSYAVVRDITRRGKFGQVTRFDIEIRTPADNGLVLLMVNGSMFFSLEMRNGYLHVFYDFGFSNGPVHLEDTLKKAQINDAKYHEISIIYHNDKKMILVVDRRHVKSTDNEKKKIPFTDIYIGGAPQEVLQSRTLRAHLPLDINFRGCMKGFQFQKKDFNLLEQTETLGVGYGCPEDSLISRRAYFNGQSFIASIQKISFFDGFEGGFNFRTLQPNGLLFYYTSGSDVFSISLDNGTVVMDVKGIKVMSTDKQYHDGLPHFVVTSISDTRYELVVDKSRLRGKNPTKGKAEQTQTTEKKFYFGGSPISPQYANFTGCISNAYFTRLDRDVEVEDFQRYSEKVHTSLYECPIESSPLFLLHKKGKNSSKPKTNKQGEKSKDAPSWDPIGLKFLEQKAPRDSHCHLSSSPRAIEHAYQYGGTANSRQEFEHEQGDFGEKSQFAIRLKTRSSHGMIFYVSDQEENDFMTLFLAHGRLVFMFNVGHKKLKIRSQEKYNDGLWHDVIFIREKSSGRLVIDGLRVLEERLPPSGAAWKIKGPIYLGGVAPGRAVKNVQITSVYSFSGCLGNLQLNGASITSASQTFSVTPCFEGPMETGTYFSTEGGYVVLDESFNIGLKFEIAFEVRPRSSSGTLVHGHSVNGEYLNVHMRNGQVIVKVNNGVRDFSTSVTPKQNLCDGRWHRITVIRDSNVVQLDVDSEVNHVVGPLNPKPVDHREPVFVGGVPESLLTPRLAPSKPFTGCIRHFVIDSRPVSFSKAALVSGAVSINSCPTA

[3] = target: T3, human LAMA4 G domain (LG1-5) displayed on 293 cells (human, UniProt Q16363 830-1821); test: LAMA4 pDisplay flow cytometric blocking assay on LAMA4-displaying 293 cells; blocked ligand: 650-conjugated mouse MCAM-Fc
T3 construct: the vector's tags and membrane anchor are not written here; also called LAMA4-displaying human 293 cells; full length
T3 sequence: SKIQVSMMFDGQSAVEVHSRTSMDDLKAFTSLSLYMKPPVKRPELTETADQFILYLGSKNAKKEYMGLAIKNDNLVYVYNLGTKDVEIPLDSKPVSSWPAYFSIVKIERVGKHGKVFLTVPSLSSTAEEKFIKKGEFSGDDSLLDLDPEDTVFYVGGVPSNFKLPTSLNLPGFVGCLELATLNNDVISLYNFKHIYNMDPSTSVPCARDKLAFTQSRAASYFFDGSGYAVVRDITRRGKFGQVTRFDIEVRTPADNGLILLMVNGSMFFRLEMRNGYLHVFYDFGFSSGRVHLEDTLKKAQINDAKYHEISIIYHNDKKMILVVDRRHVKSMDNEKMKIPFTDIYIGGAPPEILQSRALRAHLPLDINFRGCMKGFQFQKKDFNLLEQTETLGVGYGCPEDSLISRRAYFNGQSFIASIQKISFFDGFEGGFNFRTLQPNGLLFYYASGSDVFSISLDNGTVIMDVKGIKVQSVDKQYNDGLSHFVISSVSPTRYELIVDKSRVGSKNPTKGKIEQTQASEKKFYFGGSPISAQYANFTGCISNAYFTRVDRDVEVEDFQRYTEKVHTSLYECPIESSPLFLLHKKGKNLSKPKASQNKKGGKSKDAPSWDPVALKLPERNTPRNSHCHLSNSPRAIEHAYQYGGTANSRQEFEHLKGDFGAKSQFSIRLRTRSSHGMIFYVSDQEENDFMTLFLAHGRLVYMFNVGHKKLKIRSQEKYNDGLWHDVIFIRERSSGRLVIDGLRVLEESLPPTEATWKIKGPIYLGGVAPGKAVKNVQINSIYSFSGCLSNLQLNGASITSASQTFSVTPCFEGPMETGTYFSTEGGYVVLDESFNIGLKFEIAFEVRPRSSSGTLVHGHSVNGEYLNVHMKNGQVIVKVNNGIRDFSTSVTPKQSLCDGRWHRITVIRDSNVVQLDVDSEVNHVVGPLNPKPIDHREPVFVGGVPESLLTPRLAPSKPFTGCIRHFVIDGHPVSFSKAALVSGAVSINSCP

T1 sequence (chain, as listed by the source limits assumed, chain 1 of 3): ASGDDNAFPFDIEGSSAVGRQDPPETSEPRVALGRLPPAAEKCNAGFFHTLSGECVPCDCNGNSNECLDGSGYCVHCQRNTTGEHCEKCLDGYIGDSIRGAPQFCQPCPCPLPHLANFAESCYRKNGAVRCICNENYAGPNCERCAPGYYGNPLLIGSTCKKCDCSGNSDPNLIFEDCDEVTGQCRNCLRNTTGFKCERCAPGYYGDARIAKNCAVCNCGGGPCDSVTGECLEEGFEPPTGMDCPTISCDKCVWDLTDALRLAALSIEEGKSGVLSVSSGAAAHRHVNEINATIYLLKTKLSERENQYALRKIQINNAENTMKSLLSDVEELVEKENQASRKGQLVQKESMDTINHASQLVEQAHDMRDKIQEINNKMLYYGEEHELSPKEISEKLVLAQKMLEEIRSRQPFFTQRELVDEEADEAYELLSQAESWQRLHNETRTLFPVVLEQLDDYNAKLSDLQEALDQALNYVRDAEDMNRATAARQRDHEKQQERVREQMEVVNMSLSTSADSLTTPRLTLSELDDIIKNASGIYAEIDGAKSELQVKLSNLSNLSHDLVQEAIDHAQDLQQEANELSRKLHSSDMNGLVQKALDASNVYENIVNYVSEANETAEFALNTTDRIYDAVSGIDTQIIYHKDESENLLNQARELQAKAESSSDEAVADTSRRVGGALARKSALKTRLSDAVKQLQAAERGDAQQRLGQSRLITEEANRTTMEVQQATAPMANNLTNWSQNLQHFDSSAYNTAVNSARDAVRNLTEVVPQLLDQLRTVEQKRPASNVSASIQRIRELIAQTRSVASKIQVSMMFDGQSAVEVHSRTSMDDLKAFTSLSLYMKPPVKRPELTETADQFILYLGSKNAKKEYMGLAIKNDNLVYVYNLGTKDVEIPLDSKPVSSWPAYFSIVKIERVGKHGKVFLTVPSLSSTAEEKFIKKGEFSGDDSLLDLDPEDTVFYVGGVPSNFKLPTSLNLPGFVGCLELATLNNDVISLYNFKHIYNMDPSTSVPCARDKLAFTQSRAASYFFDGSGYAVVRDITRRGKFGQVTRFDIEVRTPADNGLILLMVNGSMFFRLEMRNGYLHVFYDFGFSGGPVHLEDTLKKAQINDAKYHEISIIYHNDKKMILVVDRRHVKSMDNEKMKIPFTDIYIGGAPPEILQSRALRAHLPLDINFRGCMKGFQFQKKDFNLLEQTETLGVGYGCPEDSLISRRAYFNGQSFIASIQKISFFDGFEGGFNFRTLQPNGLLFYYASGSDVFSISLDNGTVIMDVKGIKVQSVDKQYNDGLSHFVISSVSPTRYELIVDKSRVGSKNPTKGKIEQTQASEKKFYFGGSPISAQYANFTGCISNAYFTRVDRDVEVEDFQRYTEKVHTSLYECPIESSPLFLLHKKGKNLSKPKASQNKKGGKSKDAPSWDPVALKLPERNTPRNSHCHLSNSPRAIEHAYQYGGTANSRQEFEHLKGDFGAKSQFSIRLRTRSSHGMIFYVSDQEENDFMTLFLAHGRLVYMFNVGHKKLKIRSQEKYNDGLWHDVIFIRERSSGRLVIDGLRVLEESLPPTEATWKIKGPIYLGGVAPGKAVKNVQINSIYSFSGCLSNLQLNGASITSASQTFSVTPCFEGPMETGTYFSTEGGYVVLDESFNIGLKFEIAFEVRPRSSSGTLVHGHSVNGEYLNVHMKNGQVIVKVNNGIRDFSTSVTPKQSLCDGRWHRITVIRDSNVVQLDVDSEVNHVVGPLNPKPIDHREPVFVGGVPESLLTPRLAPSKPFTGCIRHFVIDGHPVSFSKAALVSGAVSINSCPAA
T1 sequence (P07942 22-1786 limits assumed, chain 2 of 3): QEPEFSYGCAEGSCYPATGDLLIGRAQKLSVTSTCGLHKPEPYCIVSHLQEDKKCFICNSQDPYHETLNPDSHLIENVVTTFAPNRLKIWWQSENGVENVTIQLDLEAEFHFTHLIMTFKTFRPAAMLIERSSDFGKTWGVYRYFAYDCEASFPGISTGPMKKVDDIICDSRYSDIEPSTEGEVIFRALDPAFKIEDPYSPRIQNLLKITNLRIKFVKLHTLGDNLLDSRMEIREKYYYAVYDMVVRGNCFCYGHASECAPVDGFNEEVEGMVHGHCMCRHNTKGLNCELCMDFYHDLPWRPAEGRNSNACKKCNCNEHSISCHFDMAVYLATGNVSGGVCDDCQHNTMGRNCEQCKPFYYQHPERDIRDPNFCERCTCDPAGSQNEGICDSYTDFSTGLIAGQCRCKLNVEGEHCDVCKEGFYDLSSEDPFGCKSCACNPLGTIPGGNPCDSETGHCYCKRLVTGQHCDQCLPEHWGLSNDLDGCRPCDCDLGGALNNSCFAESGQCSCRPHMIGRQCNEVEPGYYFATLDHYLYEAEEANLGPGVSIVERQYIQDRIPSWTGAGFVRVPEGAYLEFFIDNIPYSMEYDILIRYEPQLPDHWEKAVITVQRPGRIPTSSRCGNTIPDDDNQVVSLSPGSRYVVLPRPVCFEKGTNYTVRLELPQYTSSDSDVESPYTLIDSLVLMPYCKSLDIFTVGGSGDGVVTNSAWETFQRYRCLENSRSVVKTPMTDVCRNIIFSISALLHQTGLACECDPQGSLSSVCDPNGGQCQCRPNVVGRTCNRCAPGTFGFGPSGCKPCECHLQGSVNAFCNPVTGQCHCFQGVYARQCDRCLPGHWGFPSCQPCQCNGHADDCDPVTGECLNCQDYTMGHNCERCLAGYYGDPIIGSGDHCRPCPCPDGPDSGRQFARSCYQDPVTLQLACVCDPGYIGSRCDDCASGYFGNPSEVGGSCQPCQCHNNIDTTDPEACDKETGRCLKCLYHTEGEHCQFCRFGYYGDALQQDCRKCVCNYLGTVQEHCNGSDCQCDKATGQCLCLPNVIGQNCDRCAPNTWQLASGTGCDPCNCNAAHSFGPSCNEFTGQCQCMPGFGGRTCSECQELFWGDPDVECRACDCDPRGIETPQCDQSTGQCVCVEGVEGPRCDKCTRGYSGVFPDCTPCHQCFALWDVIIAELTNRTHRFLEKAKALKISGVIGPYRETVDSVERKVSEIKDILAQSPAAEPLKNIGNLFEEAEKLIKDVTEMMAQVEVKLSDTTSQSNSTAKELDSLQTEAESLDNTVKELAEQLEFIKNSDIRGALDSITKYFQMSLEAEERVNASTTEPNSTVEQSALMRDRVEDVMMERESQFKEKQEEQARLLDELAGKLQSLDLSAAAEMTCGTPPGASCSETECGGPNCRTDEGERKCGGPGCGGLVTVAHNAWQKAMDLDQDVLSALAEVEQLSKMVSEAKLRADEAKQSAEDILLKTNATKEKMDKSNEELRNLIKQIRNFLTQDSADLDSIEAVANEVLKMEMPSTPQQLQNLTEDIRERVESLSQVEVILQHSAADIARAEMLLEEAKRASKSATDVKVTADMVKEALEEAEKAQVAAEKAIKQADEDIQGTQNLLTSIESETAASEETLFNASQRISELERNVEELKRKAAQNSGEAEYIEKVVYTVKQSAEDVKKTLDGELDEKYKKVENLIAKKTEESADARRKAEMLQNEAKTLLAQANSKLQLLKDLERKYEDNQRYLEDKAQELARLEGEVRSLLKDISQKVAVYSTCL
T1 sequence (P11047 34-1609 limits assumed, chain 3 of 3): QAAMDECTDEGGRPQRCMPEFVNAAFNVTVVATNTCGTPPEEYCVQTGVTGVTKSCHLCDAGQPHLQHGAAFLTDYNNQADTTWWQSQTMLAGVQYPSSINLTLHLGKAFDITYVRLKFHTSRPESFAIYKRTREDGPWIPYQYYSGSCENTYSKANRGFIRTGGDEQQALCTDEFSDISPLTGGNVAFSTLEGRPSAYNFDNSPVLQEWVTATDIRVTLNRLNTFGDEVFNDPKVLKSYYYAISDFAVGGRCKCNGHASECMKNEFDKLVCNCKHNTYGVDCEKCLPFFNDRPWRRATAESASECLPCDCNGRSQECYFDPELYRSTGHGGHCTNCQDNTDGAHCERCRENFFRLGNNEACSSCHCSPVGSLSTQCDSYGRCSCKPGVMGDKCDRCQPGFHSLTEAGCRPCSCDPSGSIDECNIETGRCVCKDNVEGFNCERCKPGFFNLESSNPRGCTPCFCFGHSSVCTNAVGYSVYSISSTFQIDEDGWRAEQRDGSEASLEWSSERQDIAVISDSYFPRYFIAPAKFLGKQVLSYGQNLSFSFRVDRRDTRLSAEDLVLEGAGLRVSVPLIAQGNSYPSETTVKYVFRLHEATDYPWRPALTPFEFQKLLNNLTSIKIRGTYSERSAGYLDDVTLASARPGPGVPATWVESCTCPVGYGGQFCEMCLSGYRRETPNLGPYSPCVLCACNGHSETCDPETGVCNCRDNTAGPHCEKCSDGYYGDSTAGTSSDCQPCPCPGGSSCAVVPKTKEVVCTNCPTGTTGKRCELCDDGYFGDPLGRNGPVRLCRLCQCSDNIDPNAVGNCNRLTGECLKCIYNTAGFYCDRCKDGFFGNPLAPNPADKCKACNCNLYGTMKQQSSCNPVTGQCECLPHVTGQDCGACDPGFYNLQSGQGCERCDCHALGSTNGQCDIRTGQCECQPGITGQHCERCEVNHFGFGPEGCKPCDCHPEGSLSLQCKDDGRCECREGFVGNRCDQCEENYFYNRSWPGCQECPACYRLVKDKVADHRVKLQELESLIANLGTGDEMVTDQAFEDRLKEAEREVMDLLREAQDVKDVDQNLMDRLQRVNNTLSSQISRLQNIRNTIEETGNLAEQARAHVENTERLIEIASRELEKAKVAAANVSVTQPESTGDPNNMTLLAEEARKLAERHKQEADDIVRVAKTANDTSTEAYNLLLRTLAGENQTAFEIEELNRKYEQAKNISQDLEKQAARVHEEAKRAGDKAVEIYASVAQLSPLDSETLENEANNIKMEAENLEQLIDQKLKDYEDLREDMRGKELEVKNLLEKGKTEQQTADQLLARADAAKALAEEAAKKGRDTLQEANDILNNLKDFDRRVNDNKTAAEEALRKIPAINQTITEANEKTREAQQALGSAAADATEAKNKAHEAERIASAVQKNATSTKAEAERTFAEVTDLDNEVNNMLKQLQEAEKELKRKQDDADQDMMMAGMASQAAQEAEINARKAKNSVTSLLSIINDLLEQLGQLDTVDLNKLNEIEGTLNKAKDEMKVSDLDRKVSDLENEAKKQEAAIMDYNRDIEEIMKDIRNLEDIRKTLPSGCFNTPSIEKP

B1: mouse monoclonal antibody 19C12 (antibody, V domains shown)
VH: QVQLQQSGAELVKPGASVKISCKASGYAFSTYWMNWVKQRPGEGLEWIGQIYPGDGDTNYNGKFKGKATLTADKSSSTAYMQLSSLTSEDSAVYFCARSDGYYDYWGQGTTLTVSS
VL: NIVLTQSPASLAVSLGQRATISCRASESVDSYGTSFMHWYQQKPGQPPKLLICLASSLESGVPARFSGSGSRTDFTLTIDPVEADDAATYYCQQNNEDPPTFGAGTKLELKR
notes: Mouse hybridoma antibody; Mouse IgG2b was used as its isotype control; also called m19C12
[1]
  IC50 (read off the curve): ~0.03 µg/mL
[2]
  IC50 (read off the curve): ~0.1 µg/mL
[3]
  IC50 (read off the curve): ~0.03 µg/mL
